The source of these data is PMC8897147 (Acta Pharmaceutica Sinica. B, 2021).

The test system of one assay is COS-7 cells. The assay can be described thus: RAMP cell surface expression. Format: cell-based.
Another assay addresses GLP-1R (Homo sapiens, UniProt P43220). The assay can be described thus: BRET GPCR–RAMP interaction. Format: binding. Conditions: COS-7; receptor-Rluc8:RAMP-Ypet 1:0.25 to 1:16; pH 7.4, 37 °C; mean ± SEM n≥3. Background: In BRET a luciferase serves as donor, and the signal depends on an acceptor being close.
For assay [1], the target named is T1, GHRHR (Homo sapiens, UniProt Q02643).
T1 sequence (Q02643 23-423): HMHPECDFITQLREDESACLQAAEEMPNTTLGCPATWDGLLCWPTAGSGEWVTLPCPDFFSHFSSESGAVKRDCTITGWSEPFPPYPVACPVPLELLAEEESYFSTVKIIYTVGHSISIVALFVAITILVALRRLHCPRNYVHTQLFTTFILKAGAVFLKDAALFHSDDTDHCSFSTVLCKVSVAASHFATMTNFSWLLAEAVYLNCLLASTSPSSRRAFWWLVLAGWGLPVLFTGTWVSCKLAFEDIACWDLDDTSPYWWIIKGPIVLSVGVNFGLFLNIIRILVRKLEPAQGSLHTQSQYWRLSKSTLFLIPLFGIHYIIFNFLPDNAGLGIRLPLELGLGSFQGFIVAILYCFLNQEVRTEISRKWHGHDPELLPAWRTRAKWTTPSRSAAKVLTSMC
The assay can be described thus: BRET GPCR–RAMP interaction. Format: binding. The settings on record: COS-7; receptor-Rluc8:RAMP-Ypet 1:0.25 to 1:16; pH 7.4, 37 °C; mean ± SEM n≥3.

The target of assay [2] is T2, GCGR (Homo sapiens, UniProt P47871). The assay can be described thus: BRET GPCR–RAMP interaction. Format: binding. Conditions: COS-7; receptor-Rluc8:RAMP-Ypet 1:0.25 to 1:16; pH 7.4, 37 °C; mean ± SEM n≥3.
T2 sequence (P47871 26-477, species assumed): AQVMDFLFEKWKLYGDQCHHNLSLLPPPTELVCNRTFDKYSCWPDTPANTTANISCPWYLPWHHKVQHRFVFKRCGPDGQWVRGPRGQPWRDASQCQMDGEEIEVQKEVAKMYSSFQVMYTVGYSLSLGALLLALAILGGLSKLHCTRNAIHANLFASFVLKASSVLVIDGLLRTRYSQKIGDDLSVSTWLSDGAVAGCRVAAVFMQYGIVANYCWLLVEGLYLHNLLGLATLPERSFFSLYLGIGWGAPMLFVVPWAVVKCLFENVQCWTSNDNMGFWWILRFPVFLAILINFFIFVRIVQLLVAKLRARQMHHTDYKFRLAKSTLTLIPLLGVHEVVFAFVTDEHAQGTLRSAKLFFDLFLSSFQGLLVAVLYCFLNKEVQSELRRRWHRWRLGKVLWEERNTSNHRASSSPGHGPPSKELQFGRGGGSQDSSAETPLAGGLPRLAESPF
A further assay has as its target CLR (Homo sapiens, UniProt Q16602). The assay can be described thus: BRET GPCR–RAMP interaction. Format: binding. Conditions: COS-7; receptor-Rluc8:RAMP-Ypet 1:0.25 to 1:16; pH 7.4, 37 °C; mean ± SEM n≥3.
In another assay the test system is SCTR. The assay can be described thus: BRET GPCR–RAMP interaction. Format: binding. The settings on record: COS-7; receptor-Rluc8:RAMP-Ypet 1:0.25 to 1:16; pH 7.4, 37 °C; mean ± SEM n≥3.
Assay [3] concerns the target T3, GLP-2R (Homo sapiens, UniProt O95838).
T3 sequence (O95838 1-553): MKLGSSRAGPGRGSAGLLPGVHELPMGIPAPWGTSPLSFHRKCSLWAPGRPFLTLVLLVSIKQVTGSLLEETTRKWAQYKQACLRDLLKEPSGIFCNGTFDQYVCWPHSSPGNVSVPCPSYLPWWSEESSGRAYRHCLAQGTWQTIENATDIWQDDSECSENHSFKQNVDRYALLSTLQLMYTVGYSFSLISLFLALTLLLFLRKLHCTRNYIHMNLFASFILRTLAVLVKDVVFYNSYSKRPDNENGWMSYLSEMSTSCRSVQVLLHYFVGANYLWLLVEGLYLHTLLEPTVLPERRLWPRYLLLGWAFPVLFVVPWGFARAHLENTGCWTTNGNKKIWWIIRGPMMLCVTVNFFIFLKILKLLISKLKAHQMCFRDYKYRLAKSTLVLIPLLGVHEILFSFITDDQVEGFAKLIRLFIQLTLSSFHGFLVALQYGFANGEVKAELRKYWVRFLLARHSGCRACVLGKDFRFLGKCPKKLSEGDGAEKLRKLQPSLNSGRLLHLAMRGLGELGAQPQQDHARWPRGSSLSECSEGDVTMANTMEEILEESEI
The assay can be described thus: BRET GPCR–RAMP interaction. Format: binding. The settings on record: COS-7; receptor-Rluc8:RAMP-Ypet 1:0.25 to 1:16; pH 7.4, 37 °C; mean ± SEM n≥3.

In assay [4] the target is T4, SV1 (Homo sapiens, UniProt Q02643).
T4 sequence (Q02643 90-423 limits assumed): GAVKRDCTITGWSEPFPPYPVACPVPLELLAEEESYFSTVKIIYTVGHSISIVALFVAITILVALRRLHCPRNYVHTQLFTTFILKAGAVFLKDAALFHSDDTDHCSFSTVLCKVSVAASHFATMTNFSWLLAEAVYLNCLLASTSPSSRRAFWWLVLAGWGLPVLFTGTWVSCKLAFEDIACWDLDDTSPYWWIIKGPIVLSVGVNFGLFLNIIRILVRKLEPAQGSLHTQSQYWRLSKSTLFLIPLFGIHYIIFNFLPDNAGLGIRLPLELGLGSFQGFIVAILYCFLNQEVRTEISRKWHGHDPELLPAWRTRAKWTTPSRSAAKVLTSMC
The assay can be described thus: BRET GPCR–RAMP interaction. Format: binding. Conditions: COS-7; receptor-Rluc8:RAMP-Ypet 1:0.25 to 1:16; pH 7.4, 37 °C; mean ± SEM n≥3.

Assay [5] addresses T2, GCGR. Conditions: CHO-K1 ref [38]; cited from earlier work.
Assay [6] deals with T3, GLP-2R. The assay can be described thus: Gαq activation. Format: cell-based. Conditions: HEK293A; RAMP2.
Assay [7] has as its target T2, GCGR. Conditions: CHO-K1 ref [38]; cited from earlier work. The source holds these as a separate data set.
In a further assay the target is T5, GIPR (Homo sapiens, UniProt P48546).
T5 sequence (P48546 22-466): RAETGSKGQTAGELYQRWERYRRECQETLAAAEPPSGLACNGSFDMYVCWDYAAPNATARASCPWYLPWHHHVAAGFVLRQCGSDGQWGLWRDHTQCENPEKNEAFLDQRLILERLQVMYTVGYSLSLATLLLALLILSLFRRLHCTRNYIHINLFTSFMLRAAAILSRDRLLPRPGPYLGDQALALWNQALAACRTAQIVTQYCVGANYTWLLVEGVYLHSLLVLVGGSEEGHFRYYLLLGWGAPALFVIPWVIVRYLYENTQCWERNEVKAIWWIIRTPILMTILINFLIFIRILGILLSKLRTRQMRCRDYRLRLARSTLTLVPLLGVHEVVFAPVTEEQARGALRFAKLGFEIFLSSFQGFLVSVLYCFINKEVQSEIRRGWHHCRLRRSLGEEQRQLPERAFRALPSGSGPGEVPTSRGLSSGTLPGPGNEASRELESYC
The assay can be described thus: BRET GPCR–RAMP interaction. Format: binding. Conditions: COS-7; receptor-Rluc8:RAMP-Ypet 1:0.25 to 1:16; pH 7.4, 37 °C; mean ± SEM n≥3.

For assay [8], the target named is T1, GHRHR. The assay can be described thus: cAMP accumulation. The settings on record: COS-7; RAMP3. (In general: Changes in cAMP serve as a functional read-out for many G protein-coupled receptors.)
For assay [9], the target named is T4, SV1. The assay can be described thus: cAMP accumulation. Conditions: COS-7; RAMP3.

Sequence of GLP-1R (P43220 24-463): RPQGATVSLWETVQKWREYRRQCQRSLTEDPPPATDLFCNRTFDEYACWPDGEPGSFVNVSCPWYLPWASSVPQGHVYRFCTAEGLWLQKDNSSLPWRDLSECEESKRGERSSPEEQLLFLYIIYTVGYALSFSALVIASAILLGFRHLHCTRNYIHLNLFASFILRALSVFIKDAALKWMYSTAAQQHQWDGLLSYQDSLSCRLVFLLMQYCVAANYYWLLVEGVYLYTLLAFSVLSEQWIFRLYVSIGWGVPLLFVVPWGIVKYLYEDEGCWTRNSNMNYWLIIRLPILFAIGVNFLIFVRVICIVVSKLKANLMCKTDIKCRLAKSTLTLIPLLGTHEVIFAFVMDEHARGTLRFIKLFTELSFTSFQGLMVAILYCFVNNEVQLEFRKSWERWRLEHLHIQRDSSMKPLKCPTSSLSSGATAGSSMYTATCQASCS
Sequence of CLR (Q16602 23-461): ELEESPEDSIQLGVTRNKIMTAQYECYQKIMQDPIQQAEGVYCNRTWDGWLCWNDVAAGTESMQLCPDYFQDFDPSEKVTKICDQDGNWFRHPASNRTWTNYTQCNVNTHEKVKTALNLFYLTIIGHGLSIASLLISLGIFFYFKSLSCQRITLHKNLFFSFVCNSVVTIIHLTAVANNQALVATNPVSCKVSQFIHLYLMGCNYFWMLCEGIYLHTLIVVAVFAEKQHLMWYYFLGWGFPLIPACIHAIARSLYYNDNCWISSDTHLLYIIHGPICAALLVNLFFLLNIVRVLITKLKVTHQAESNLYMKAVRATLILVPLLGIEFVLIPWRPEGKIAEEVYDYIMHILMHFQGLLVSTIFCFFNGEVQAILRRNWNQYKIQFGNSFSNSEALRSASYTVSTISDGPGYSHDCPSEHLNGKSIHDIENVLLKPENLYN

B1: receptor activity-modulating protein 2 (protein)
chain: QPLPTTGTPGSEGGTVKNYETAVQFCWNHYKDQMDPIEKDWCDWAMISRPYSTLRDCLEHFAELFDLGFPNPLAERIIFETHQIHFANCSLVQPTFSDPPEDVLLAMIIAPICLIPFLITLVVWRSKDSEAQA
modifications: left off: Ypet, C-terminal, kept
In the case of B1, in the assay on COS-7 cells (co-expression with glucagon receptor family members, FLAG-RAMP), the “RAMP cell surface expression” value is given as “negligible”. For the same molecule, the “Bmax (maximum measured BRET value)” value with GLP-1R was 0.397 ± 0.092; with GHRHR [1], 0.393 ± 0.025; with GCGR [2], 0.578 ± 0.072; with CLR, 0.468 ± 0.042; in the assay with SCTR it was 0.434 ± 0.051; with GLP-2R [3], 0.567 ± 0.234. Further, the “Bmax (maximum measured BRET value)” value is given as 0.843 ± 0.102 with SV1 [4] and 0.474 ± 0.122 in the assay with GIPR. Moreover, the β-arrestin recruitment result with GCGR [5] is “abolished β-arrestin recruitment”. The “effect of RAMP on potency, Gαq activation” value with GLP-2R [6] is recorded as “nominal reduction”. Also, the Gαq signaling result in the assay with GCGR [7] is “attenuated Gαq signaling”.

B2: receptor activity-modulating protein 3 (protein)
chain: RAGGCNETGMLERLPLCGKAFADMMGKVDVWKWCNLSEFIVYYESFTNCTEMEANVVGCYWPNPLAQGFITGIHRQFFSNCTVDRVHLEDPPDEVLIPLIVIPVVLTVAMAGLVVWRSKRTDTLL
modifications: left off: Ypet, C-terminal, kept
As to B2, the “RAMP cell surface expression” value is recorded as “negative” in the assay on COS-7 cells (co-expression with GCGR, FLAG-RAMP); “negative” with COS-7 cells (co-expression with SCTR, FLAG-RAMP, effect of receptor on RAMP3); “negative” in the assay with COS-7 cells (co-expression with SV1, FLAG-RAMP). The “Bmax (maximum measured BRET value)” value was 0.862 ± 0.100 with GLP-1R; 0.948 ± 0.139 with GHRHR [1]; 1.102 ± 0.165 in the assay with GCGR [2]; 0.511 ± 0.058 with CLR; 0.995 ± 0.058 with SCTR; 0.689 ± 0.128 in the assay with GLP-2R [3]. For the same molecule, the “Bmax (maximum measured BRET value)” value with SV1 [4] is reported as 1.842 ± 0.754; with GIPR, 0.729 ± 0.061. Also, the “effect of RAMP on cAMP response” value with GHRHR [8] is given as “no effect”; in the assay with SV1 [9], “marked response”.
